B1: anti-DLL3 trispecific protein 2H06 (protein, part only; not given: anti-CD3 fragment and anti-albumin domain, part only)
chain, part: EVQLVESGGGLVQPGGSLTLSCVASGSTSTINAMGWYRRAPGKQRELVAGISSDGSKVYADSVKGRFTISRDNAKNSVYLQMNSLRAEDTAVYYCYYFRTASGSSMRYWGQGTLVTVSSGGGGSGGGSGGGGSGGGSHHHHHH
B2: anti-DLL3 trispecific protein 2F07 (protein, part only; not given: anti-CD3 fragment and anti-albumin domain, part only)
chain, part: EVQLVESGGGLVQPGGSLTLSCVASGSTSSINAVGWYRRAPGKQRELVAGISSDGSSVYADSVKGRFTISRDNAKNSVYLQMNSLRAEDTAVYYCYYFRTVSTSSMRYWGQGTLVTVSSGGGGSGGGSGGGGSGGGSHHHHHH
B3: anti-DLL3 trispecific protein 2A05 (protein, part only; not given: CD3 fragment and albumin sdAb, part only)
chain, part: EVQLVESGGGLVQPGGSLTLSCVASGRTSSINAMGWYRRAPGKQRELVAGISSDGSKVYNDSVKGRFTISRDNAKNSVYLQMNSLRAEDTAVYYCYYFRTVSGTSMRYWGQGTLVTVSSGGGGSGGGSGGGGSGGGSHHHHHH
B4: anti-DLL3 trispecific protein 2G09 (protein, part only; not given: CD3 fragment and albumin sdAb, part only)
chain, part: EVQLVESGGGLVQPGGSLTLSCVASGSTSSINAMGWYRRAPGKQRELVAGVSSDGSKVYADSVKGRFTISRDNAKNSVYLQMNSLRAEDTAVYYCYYFRTVSGSSARYWGQGTLVTVSSGGGGSGGGSGGGGSGGGSHHHHHH
B5: anti-DLL3 trispecific protein 1C06 (protein, part only; not given: anti-CD3 and anti-albumin domains, part only)
chain, part: EVQLVESGGGLVQPGGSLTLSCVASGSTSIINAMGWYRRAPGKQRELVAGISSDGSKVYEDSVKGRFTISRDNAKNSVYLQMNSLRAEDTAVYYCYYFRAVSGSSMRYWGQGTLVTVSSGGGGSGGGSGGGGSGGGSHHHHHH
B6: anti-DLL3 trispecific protein 2A06 (protein, part only; not given: CD3 binder and albumin binder, part only)
chain, part: EVQLVESGGGLVQPGGSLTLSCVASGSTSSRNAMGWYRRAPGKQRELVAGISSDGSKVTADSVKGRFTISRDNAKNSVYLQMNSLRAEDTAVYYCYYFRTRSGSSMRYWGQGTLVTVSSGGGGSGGGSGGGGSGGGSHHHHHH
B7: anti-DLL3 trispecific protein 1H010 (protein, part only; not given: anti-CD3 fragment and anti-albumin sdAb, part only)
chain, part: EVQLVESGGGLVQPGGSLTLSCVASGSTRSINAMGWYRRAPGKQRELVAGISSDGSKVYNDSVKGRFTISRDNAKNSVYLQMNSLRAEDTAVYYCYYFRTVSGSSMRFWGQGTLVTVSSGGGGSGGGSGGGGSGGGSHHHHHH
B8: anti-DLL3 trispecific protein 1C04 (protein, part only; not given: anti-CD3 fragment and anti-albumin sdAb, part only)
chain, part: EVQLVESGGGLVQPGGSLTLSCVASGNTSSINAMAWYRRAPGKQRELVAGISSDGSKVYADSVKGRFTISRDNAKNSVYLQMNSLRAEDTAVYYCYYFRTVSGSSMRYWGQGTLVTVSSGGGGSGGGSGGGGSGGGSHHHHHH
B9: anti-DLL3 trispecific protein 2A01 (protein, part only; not given: anti-CD3 fragment and anti-albumin sdAb, part only)
chain, part: EVQLVESGGGLVQPGGSLTLSCVASGSTSSINAMGWYRRAPGKQRELVAGISSDGSKVVADSVKGRFTISRDNAKNSVYLQMNSLRAEDTAVYYCYYFRTLSGSSMRYWGQGTLVTVSSGGGGSGGGSGGGGSGGGSHHHHHH
B10: anti-DLL3 trispecific protein 2E09 (protein, part only; not given: anti-CD3 and anti-albumin domains, part only)
chain, part: EVQLVESGGGLVQPGGSLTLSCVASGSVSSINAMGWYRRAPGKQRELVAGISSDGSKVYASSAKGRFTISRDNAKNSVYLQMNSLRAEDTAVYYCYYFRTLSGSSMRYWGQGTLVTVSSGGGGSGGGSGGGGSGGGSHHHHHH
B11: anti-DLL3 trispecific protein 1A07 (protein, part only; not given: anti-CD3 fragment and anti-albumin domain, part only)
chain, part: EVQLVESGGGLVQPGGSLTLSCVASGSISSINAMGWYRRAPGKQRELVAGISSDGSKVYADSVKGRFTISRDNAKNSVYLQMNSLRAEDTAVYYCYYFRMVSGSSMRYWGQGTLVTVSSGGGGSGGGSGGGGSGGGSHHHHHH
B12: anti-DLL3 trispecific protein 1E04 (protein, part only; not given: anti-CD3 fragment and anti-albumin sdAb, part only)
chain, part: EVQLVESGGGLVQPGGSLTLSCVASGSTSRINGMGWYRRAPGKQRELPAGISSDGSKAYADSVKGRFTISRDNAKNSVYLQMNSLRAEDTAVYYCYYFRTASGTSMRYWGQGTLVTVSSGGGGSGGGSGGGGSGGGSHHHHHH
B13: anti-DLL3 trispecific protein 1B05 (protein, part only; not given: CD3 binder and albumin binder, part only)
chain, part: EVQLVESGGGLVQPGGSLTLSCVASGSTSSINAMAWYRRAPGKQRELVAGISSDGSKVYADSVKGRFTISRDNAKNSVYLQMNSLRAEDTAVYYCYYYRTVSGSSMRYWGQGTLVTVSSGGGGSGGGSGGGGSGGGSHHHHHH
B14: anti-DLL3 trispecific protein 1G07 (protein, part only; not given: anti-CD3 and anti-albumin domains, part only)
chain, part: EVQLVESGGGLVQPGGSLTLSCVASGSTSSINAMGWYRRAPGKQRELVAGISSDGSKVVADSVKGRFTISRDNAKNSVYLQMNSLRAEDTAVYYCYYFRTYSGSSMRYWGQGTLVTVSSGGGGSGGGSGGGGSGGGSHHHHHH
B15: anti-DLL3 trispecific protein 2A03 (protein, part only; not given: CD3 fragment and albumin sdAb, part only)
chain, part: EVQLVESGGGLVQPGGSLTLSCVASGTTSSINAMGWYRRAPGKQRELVAGISSDGSKVYGDSVKGRFTISRDNAKNSVYLQMNSLRAEDTAVYYCYYFRTVSGSAMRYWGQGTLVTVSSGGGGSGGGSGGGGSGGGSHHHHHH
B16: anti-DLL3 trispecific protein 1C012 (protein, part only; not given: anti-CD3 and anti-albumin domains, part only)
chain, part: EVQLVESGGGLVQPGGSLTLSCVASGITSSINAMGWYRRAPGKQRELVAGISSDGSKVYAGSVKGRFTISRDNAKNSVYLQMNSLRAEDTAVYYCYYFRTVRGSSMRYWGQGTLVTVSSGGGGSGGGSGGGGSGGGSHHHHHH
B17: anti-DLL3 trispecific protein 1B03 (protein, part only; not given: anti-CD3 and anti-albumin domains, part only)
chain, part: EVQLVESGGGLVQPGGSLTLSCVASGKTSSINAMAWYRRAPGKQRELVAGISSDGSKVYTDSVKGRFTISRDNAKNSVYLQMNSLRAEDTAVYYCYYFRTVSGSSARYWGQGTLVTVSSGGGGSGGGSGGGGSGGGSHHHHHH
B18: anti-DLL3 trispecific protein 1F06 (protein, part only; not given: anti-CD3 and anti-albumin domains, part only)
chain, part: EVQLVESGGGLVQPGGSLTLSCVASGTTSSINAMGWYRRAPGKQRELVAGISSDGSKVIADSVKGRFTISRDNAKNSVYLQMNSLRAEDTAVYYCYYFRTVLGSSMRYWGQGTLVTVSSGGGGSGGGSGGGGSGGGSHHHHHH
B19: anti-DLL3 trispecific protein 2D05 (protein, part only; not given: anti-CD3 fragment and anti-albumin domain, part only)
chain, part: EVQLVESGGGLVQPGGSLTLSCVASGSTSRINAMGWYRRAPGKQRELVAGISSDGSKVYADSVKGRFTISRDNAKNSVYLQMNSLRAEDTAVYYCYYFRTASGSSMRYWGQGTLVTVSSGGGGSGGGSGGGGSGGGSHHHHHH
B20: anti-DLL3 trispecific protein 3C09 (protein, part only; not given: anti-CD3 and anti-albumin domains, part only)
chain, part: EVQLVESGGGLVQPGGSLTLSCAASGSSVSFLSMAWYRQAPGKKRELVAGISADGSTIYIDSVKGRFTISRDNAKNSVYLQMNSLRAEDTAVYYCYAYRWRTRYTYWGQGTLVTVSSGGGGSGGGSGGGGSGGGSHHHHHH
B21: anti-DLL3 trispecific protein 3H010 (protein, part only; not given: anti-CD3 and anti-albumin domains, part only)
chain, part: EVQLVESGGGLVQPGGSLTLSCAASGSSVSFLSMAWYRQAPGKKRELVAGISADGSTAYIDSVKGRFTISRDNAKNSVYLQMNSLRAEDTAVYYCYAYRWTTRRTYWGQGTLVTVSSGGGGSGGGSGGGGSGGGSHHHHHH
B22: anti-DLL3 trispecific protein 3C05 (protein, part only; not given: anti-CD3 and anti-albumin domains, part only)
chain, part: EVQLVESGGGLVQPGGSLTLSCVASGTSVSFLSMAWYRQAPGKKRELVAGISADGSTTYIDSVKGRFTISRDNAKNSVYLQMNSLRAEDTAVYYCYAYRWTTRRTYWGQGTLVTVSSGGGGSGGGSGGGGSGGGSHHHHHH
B23: anti-DLL3 trispecific protein 3A02 (protein, part only; not given: CD3 fragment and albumin sdAb, part only)
chain, part: EVQLVESGGGLVQPGGSLTLSCAASGSSVSFLSLAWYRQAPGKKRELVAGISADGSTAYIDSVKGRFTISRDNAKNSVYLQMNSLRAEDTAVYYCYAYRWRTRYTYWGQGTLVTVSSGGGGSGGGSGGGGSGGGSHHHHHH
B24: anti-DLL3 trispecific protein 4G09 (protein, part only; not given: anti-CD3 fragment and anti-albumin domain, part only)
chain, part: EVQLVESGGGLVQPGGSLTLSCAASGSRVSFLSMAWYRQAPGKKRELVAGISYDGSTDYIDSVKGRFTISRDNAKNSVYLQMNSLRAEDTAVYYCYAYRWTTRRTYWGQGTLVTVSSGGGGSGGGSGGGGSGGGSHHHHHH
B25: anti-DLL3 trispecific protein 4C05 (protein, part only; not given: anti-CD3 and anti-albumin domains, part only)
chain, part: EVQLVESGGGLVQPGGSLTLSCAASGSSVSNLSMAWYRQAPGKKRELVAGISADGSTAYIDSVKGRFTISRDNAKNSVYLQMNSLRAEDTAVYYCYAYRWTTRRTYWGQGTLVTVSSGGGGSGGGSGGGGSGGGSHHHHHH
B26: anti-DLL3 trispecific protein 3G04 (protein, part only; not given: CD3 binder and albumin binder, part only)
chain, part: EVQLVESGGGLVQPGGSLTLSCVASGTSVSFLSMAWYRQAPGKKRELVAGISADGSTIYIDSVKGRFTISRDNAKNSVYLQMNSLRAEDTAVYYCYAYRWTTRRTYWGQGTLVTVSSGGGGSGGGSGGGGSGGGSHHHHHH
B27: anti-DLL3 trispecific protein 4D04 (protein, part only; not given: anti-CD3 fragment and anti-albumin sdAb, part only)
chain, part: EVQLVESGGGLVQPGGSLTLSCAASGSSVSFLSIAWYRQAPGKKRELVAGISKDGSTDYIDSVKGRFTISRDNAKNSVYLQMNSLRAEDTAVYYCYAYRWTTRMTYWGQGTLVTVSSGGGGSGGGSGGGGSGGGSHHHHHH
B28: anti-DLL3 trispecific protein 3H06 (protein, part only; not given: anti-CD3 and anti-albumin domains, part only)
chain, part: EVQLVESGGGLVQPGGSLTLSCAASGSSVSQLSMAWYRQAPGKKRELVAGISADGSTDYFDSVKGRFTISRDNAKNSVYLQMNSLRAEDTAVYYCYAYRWTTRGTYWGQGTLVTVSSGGGGSGGGSGGGGSGGGSHHHHHH
B29: anti-DLL3 trispecific protein 4F011 (protein, part only; not given: anti-CD3 and anti-albumin domains, part only)
chain, part: EVQLVESGGGLVQPGGSLTLSCAASGSKVSFLSMAWYRQAPGKKRELVAGISADGSKDYIDSVKGRFTISRDNAKNSVYLQMNSLRAEDTAVYYCYAYRWTTRYTYWGQGTLVTVSSGGGGSGGGSGGGGSGGGSHHHHHH
B30: anti-DLL3 trispecific protein 4F09 (protein, part only; not given: anti-CD3 and anti-albumin domains, part only)
chain, part: EVQLVESGGGLVQPGGSLTLSCAASGSRVSFLSMAWYRQAPGKKRELVAGISADGSTDYIESVKGRFTISRDNAKNSVYLQMNSLRAEDTAVYYCYAYRWTTRYTYWGQGTLVTVSSGGGGSGGGSGGGGSGGGSHHHHHH

Sequence of biotinylated human DLL3 protein expressed as a human IgG1 fusion protein (human) (Q9NYJ7 other isoform, or with tags, fused parts or gaps): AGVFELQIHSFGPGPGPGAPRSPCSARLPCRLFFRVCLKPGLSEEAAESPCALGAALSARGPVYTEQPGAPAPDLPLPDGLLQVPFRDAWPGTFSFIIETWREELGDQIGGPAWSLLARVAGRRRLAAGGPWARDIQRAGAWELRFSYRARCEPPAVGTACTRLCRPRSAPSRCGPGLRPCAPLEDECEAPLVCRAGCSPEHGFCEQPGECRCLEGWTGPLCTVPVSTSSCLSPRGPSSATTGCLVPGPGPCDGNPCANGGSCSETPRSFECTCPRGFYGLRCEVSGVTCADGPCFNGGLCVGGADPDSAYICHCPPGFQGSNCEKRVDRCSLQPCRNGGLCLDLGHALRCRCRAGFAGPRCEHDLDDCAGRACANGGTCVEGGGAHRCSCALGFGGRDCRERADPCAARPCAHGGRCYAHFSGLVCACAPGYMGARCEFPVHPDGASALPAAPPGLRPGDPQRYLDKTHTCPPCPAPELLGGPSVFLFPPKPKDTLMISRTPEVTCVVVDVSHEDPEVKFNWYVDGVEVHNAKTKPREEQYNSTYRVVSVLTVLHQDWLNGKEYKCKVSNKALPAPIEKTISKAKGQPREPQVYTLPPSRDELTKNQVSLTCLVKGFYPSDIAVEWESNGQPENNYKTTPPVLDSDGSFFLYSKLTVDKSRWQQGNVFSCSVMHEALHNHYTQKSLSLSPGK

This test concerns the target biotinylated human DLL3 protein expressed as a human IgG1 fusion protein (human) (UniProt Q9NYJ7). Description: Octet BLI; biotinylated huDLL3-IgG1 fusion on streptavidin tips; single 50 nM; conditioned medium. A general note: Biolayer interferometry detects binding as a change in optical thickness at a sensor tip.
For B1, the Kd (usually the concentration at which binding is half-saturated) is 7.9 nM.

On to B2, for which the Kd was determined as 8 nM. Take B3: the Kd was 8.9 nM. Regarding B4, the dissociation constant (Kd) came out at 8 nM.

B5: the Kd was determined as 8.3 nM. The value for B6 was 8.9 nM. In the case of B7, the Kd turned out to be 8.4 nM. As for B8, the Kd was 8.1 nM. In turn, B9 showed a Kd of 8 nM. Consider B10, for which the Kd is 8.5 nM.

With B11, the Kd is 8.6 nM.

For B12, the dissociation constant (Kd) was 8.1 nM. The molecule B13 registered a Kd of 8 nM. The value for B14 was 8.3 nM; that for B15 was 8.2 nM.

In turn, B16 showed a Kd of 8.5 nM. In turn, B17 had a Kd of 8.7 nM.

The molecule B18 showed a Kd of 8.9 nM. Under B19 stands 8.3 nM; under B20, 7.8 nM. The molecule B21 gave a Kd of 8.6 nM. With B22, the Kd amounted to 8.2 nM.

The molecule B23 came in with a Kd of 8.1 nM. The molecule B24 showed a Kd of 8.8 nM. The molecule B25 showed a Kd of 8.3 nM.

Consider B26, for which the Kd came out at 8.8 nM. Molecule B27 displayed a Kd of 8.6 nM.

Take B28: the Kd was found to be 8 nM. In turn, B29 displayed a Kd of 8.2 nM. In turn, B30 yielded an equilibrium dissociation constant (Kd) of 8.8 nM.

For the origin of these results see US20200095340A1.
